This note sets out measurements from article doi:10.1101/2024.08.29.610268.

The target of the data set is NELF complex WT (NELF-A/B/D/E) (human, UniProt Q9H3P2;Q8WX92;Q8IXH7;P18615 1-528;1-628;1-590;1-380). In words: fluorescence anisotropy.

With CCAGAUCUGAGCCUGGGAGCUCUCUGG (structured_RNA) [HIV-1 TAR stem loop], the binding result is given as “binds”.
